Source: US20080138280A1, “Composition and Methods For Inhibiting Cell Survival” (The Cleveland Clinic Foundation, priority 2003, published 2008)

B1: Apo2L/TRAIL: tumor necrosis factor-related apoptosis-inducing ligand; trimeric recombinant human Apo2L/TRAIL (Genentech) (protein, UniProt P50591 1-281, looked up)
Tumor necrosis factor ligand …: MAMMEVQGGPSLGQTCVLIVIFTVLLQSLCVAVTYVYFTNELKQMQDKYSKSGIACFLKEDDSYWDPNDEESMNSPCWQVKWQLRQLVRKMILRTSEETISTVQEKQQNISPLVRERGPQRVAAHITGTRGRSNTLSSPNSKNEKALGRKINSWESSRSGHSFLSNLHLRNGELVIHEKGFYYIYSQTYFRFQEEIKENTKNDKQMVQYIYKYTSYPDPILLMKSARNSCWSKDAEYGLYSIYQGGIFELKENDRIFVSVTNEHLIDMDHEASFFGAFLVG

Experiments:
[1] = system: NF-κB DNA binding activity; assay: Electrophoretic mobility shift assay (EMSA) of NF-κB DNA binding activity, A375 cells; format: cell-based, human; conditions: NO donor 100 μM pre-treatment 16 h, Apo2L/TRAIL 100 ng/ml 1 h
Experimental: Electrophoretic mobility shift assay (EMSA). These methods apply generally to FIGS. 5, 9-10 which employ EMSA analysis. In FIG. 5, A375 cells were treated with NO donors (NO-Cbl, NOC-18, SNAP, 100 μM, 16 h), or with Apo2L/TRAIL (100 ng/ml) or TNF-α (20 ng/ml) for 1 h, or with the combination of NO donors (16 h) followed by Apo2L/TRAIL or TNF-α (1 h). Plates were washed twice with ice-cold PBS. Cells were resuspended in cold 1× lysis buffer (20 mM HEPES, 20 mM NaF, 1 mM Na3VO4, 1 mM EDTA, 1 mM DTT, 100 mM NaCl, 10% glycerol and protease inhibitors) and incubated on ice for 30 min followed by centrifugation at 4° C. at 10,000 rpm for 10 min. Supernatants were transferred to fresh tubes and protein concentrations were assessed using the Bradford method (Bio-RAD protein assay, BioRad, Hercules, Calif.). The NF-κB consensus binding sequence (5′[…] 3′) from the IFN-β gene promoter was end-labeled with γ^32P dATP ([…]) using T4 polynucleotide kinase. DNA binding reactions were performed in 20 μl volume containing 10 μg protein, 20 mM HEPES, 10 mM KCl, 0.1% NP-40, 0.5 mM DIT and 10% glycerol. The binding reaction was performed for 20 min at 25° C. Complexes were separated from the free probe on 6% non-denaturing polyacrylamide gels in 0.5×TBE buffer at 200 V for 2 h. Gels were dried and exposed to film.
Inhibition of NF-κB survival signaling by NO-Cbl. Because NF-κB is an important cell survival regulator, we examined the effects of NO-Cbl on NF-κB DNA binding activity. The NF-κB binding sequence from the IFN-β gene promoter was used as a probe to assess DNA binding activity. A375 cells were treated with TNF-α (20 ng/ml), Apo2L/TRAIL (100 ng/ml) or NO-Cbl (100 μM). FIG. 5, illustrates an Electrophoretic Mobility Shift Assay (EMSA) of NF-κB DNA binding activity. Pre-treatment of A375 cells with NO-Cbl inhibited the NF-κB DNA binding activity induced by Apo2L/TRAIL and TNF-α. […] NF-κB-luc transfected A375 cells were pre-treated with NO-Cbl followed by Apo2L/TRAIL or TNF-α. […] Cell lysates were analyzed for NF-κB-luc reporter activity. […]

[2] = system: phospho-IκBα in A375 cells; assay: Western blot analysis of IκBα phosphorylation; format: cell-based, human; conditions: pre-treatment 100 μM, Apo2L/TRAIL 100 ng/ml
Experimental: Gel Electrophoresis and Immunoblot analyses. Please see FIG. 4. Whole cell lysates were prepared in 1× lysis buffer (50 mM Tris-Cl, pH 8.0, 1% Triton×100, 10% glycerol, 1 mM EDTA, 250 mM NaCl, 1 mM DTT, 1 mM PMSF, 10 μg/ml aprotinin, 10 μg/ml leupeptin, and 10 μg/ml pepstatin) for subsequent immunoblotting studies. The SDS-PAGE was conducted by using the Laemmli buffer system and 12% polyacrylamide gels. Proteins were transferred onto PVDF membranes by the semidry method (Trans Blot SD, BioRad, Hercules, Calif.). Binding of the primary and secondary antibodies was performed according to standard protocols. Membranes were immunoblotted with pAb to caspase-3, caspase-8, XIAP (BD-Pharmingen, San Diego, Calif.), PARP (BioMOL, Plymouth Meeting, Pa.), cIAP-1, FLIP, pIκBα and IκBα (Cell Signaling, Beverly, Mass.) followed by incubation with HRP conjugated secondary antibodies (Pierce, Rockford, Ill.). Immunoreactive bands were visualized by using enhanced chemiluminescence (Perkin Elmer, Boston, Mass.). Equal protein loading was confirmed by reprobing with monoclonal anti-actin antibody (Sigma Chemicals Co, St. Louis, Mo.). All immunoblots in this study were repeated 3 times with reproducible results.
NO-Cbl treatment affected the phosphorylation state of IκBα, the prototypic inhibitor of NF-κB. Western blot analysis was performed to assess levels of phospho-IκBα and IκBα. FIG. 6 is a Western blot analysis of IκB levels and IκBα phosphorylation. IκBα and phospho-IκBα protein levels were determined in A375 whole cell lysates. […] NO-Cbl, NOC-18, and SNAP pre-treatment all inhibited Apo2L/TRAIL-induced IκBα phosphorylation.

[3] = system: NF-κB signaling; assay: Inhibition of NF-κB signaling by NO donors; format: cell-based; conditions: summary statement
From the text: SNAP, SNP (nitroprusside) and NOC-18 inhibit NF-κB signaling.

[4] = system: CMN1 (normal melanocytes); assay: Sulforhodamine B cell growth assay, normal cells; format: cell-based, human
Experimental: (§1) Cell Culture treatments. Cells were maintained in RPMI or DMEM (Mediatech, Herndon, Va.) containing 5% fetal bovine serum (Hyclone, Logan, Utah) and 1% Antibiotic-Antimycotic (GEBCO, Invitrogen Carlsbad, Calif.) as recommended per the American Type Culture Collection media protocol for each cell line. Cells were maintained in 5% CO2 at 37° C. in a humidified tissue culture incubator. Primary non-tumorigenic […] cell lines (DMN-1 and CMN-1), and human foreskin fibroblasts (HFF; CCF, Cleveland, Ohio) were cultured in DMEM-F12 medium supplemented with 10% FBS. Cells were confirmed as mycoplasma free.
(§2) Sulforhodamine B Cell Growth Assay. Cells were harvested with 0.5% trypsin/0.53 mM EDTA, washed with PBS and resuspended in media containing 10% FBS. Cells were plated in 96-well plates in 0.2-ml aliquots. Cells were allowed to adhere to the plate for 4 h and then NO-Cbl was added in different concentrations to the assay plate. A minimum of four were performed for each treatment. After 16 h, various chemotherapeutic agents including cytokines were added at different concentrations. Growth was monitored by the sulforhodamine B (SRB; Sigma Chemical, St. Louis, Mo.) colorimetric assay. After 36 h, the medium was removed, and the cells were fixed with 10% trichloroacetic acid and stained with SRB. Bound dye was eluted from the cells with 10 mM Tris-HCl (pH 10.5) and absorbance was measured at 570 nm using a Lab systems Multiskan RC 96-well plate reader (Lab Systems Multiscan RC, Thermo Lab Systems, Franklin, Mass.). To quantify the growth of the cells, the experimental absorbance values (Aexp) were compared with initial absorbance readings representing the starting cell numbers (Aini). To determine the starting cell number, an additional 96-well plate was seeded with cells and fixed at the beginning of the experiment. After 5 days growth, the untreated control cells and drug treated cells were fixed and stained with SRB. The absorbances derived from the initial plate and from the untreated cells at the end of the growth period (Afin) were defined as 0% and 100% growth, respectively. The percentage control growth (100%×[Aexp−Aini]/[Afin−Aini]) is expressed as a percentage of untreated controls.
(§3) Anti-tumor effects of NO-Cbl, Apo2L/TRAIL, and the combination iii vitro. NO-Cbl enhances the anti-cellular effects of Apo2L/TRAIL against malignant Apo2L/TRAIL-resistant cell lines. First the antiproliferative effects of three melanoma lines A375, WM9, and WM3211 (previously reported to be resistant to Apo2L/TRAIL) were measured. Although Apo2L/TRAIL was used as the chemotherapeutic agents, a wide range of anti-cancer drugs and techniques would be enhanced by the NO based cobalamin compounds due to their effective inhibition of the cell survival mechanism. Such other chemotherapeutic agents are tested in the following examples. […] The SRB antiproliferative assay, used by the National Cancer Institute (NCI) to evaluate new chemotherapeutic agents was used herein. Median effect analysis was used to analyze drug interactions between NO-Cbl and Apo2L/TRAIL. Cells were pre-treated with NO-Cbl for 16 h followed by Apo2L/TRAIL for 24 h.
(§4) The effects of nitrosylcobalamin (NO-Cbl), Apo2L/TRAIL, and the combination on the proliferation of melanoma cell lines A375, WM9, and WM3211 and normal cell lines CMN1, DMN1, and fibroblasts were observed. Cells were treated with NO-Cbl, Apo2L/TRAIL, or pre-treated with NO-Cbl followed by Apo2L/TRAIL for three days, and growth was measured by the colorimetric sulforhodamine B assay. Data points were generated to represent the mean of four replicates±standard error of the mean (SEM). Synergy between NO-Cbl and Apo2L/TRAIL was determined by median effect analysis, (combination index >1 indicates antagonism, =1 indicates additivity, and <1 indicates synergy). The combination index is represented in FIG. 1 and as the combination index observed at the specified concentrations. […]

[5] = system: DMN1 (normal melanocytes); assay: Sulforhodamine B cell growth assay, normal cells; format: cell-based, human
Experimental: as §1, §2, §3, §4

[6] = system: normal fibroblasts; assay: Sulforhodamine B cell growth assay, normal cells; format: cell-based, human
Experimental: as §1, §2, §3, §4

[7] = system: A375 melanoma xenografts; assay: Growth of subcutaneous A375 xenografts in nude mice; format: in vivo
From the text: In vivo experiments. Please see FIG. 2. The Institutional Animal Care and Use Committee at the Cleveland Clinic Foundation approved all procedures for animal experimentation. Five week-old NCR male athymic nude homozygous (nu/nu) mice (Taconic, Germantown, N.Y.) were inoculated with A375 tumors. Each experimental group contained 4 mice, each mouse bearing two tumors, on opposite flanks. There were four experimental groups (untreated, single agents, and the combination). Cultured tumor cells (4×10^6) were inoculated into flanks in the mid-axillary line. NO-Cbl was given twice daily (50 mg/kg s.c.) and recombinant trimeric Apo2L/TRAIL (50 mg/kg s.c.) was administered every other day, starting on day 2. Tumor volume was measured three times a week using the formula for a prolate spheroid: (4/3) πab^2 where 2a=major axis, 2b=minor axis. Formalin-fixed sections were processed by the Cleveland Clinic Histology Core. Sections were stained with hematoxylin and eosin and evaluated for pathologic changes in a blinded fashion.
Anti-tumor effects of NO-Cbl, Apo2L/TRAIL, and the combination in vivo. To test drug activity in vivo, subcutaneous A375 xenografts were inoculated in nude mice. FIG. 2. illustrates the effect of NO-Cbl, Apo2L/TRAIL and the combination on the growth of A375 melanoma xenografts. NCR male athymic nude (nulnu) mice (n=4 per group) were injected subcutaneously with 4×10^6 A375 cells. Drug treatments began on day two (2) after injection of tumor cells. NO-Cbl was administered twice daily for the duration of the study. Apo2L/TRAIL was administered every other day. The control mice received phosphate buffered saline. The tumor volume was measured three times per week. Data points represent the mean tumor volume (in cubic mm)±SEM. Daily drug treatments began on day 2 following implantation, at which time tumors were both visible and palpable. Untreated control tumors grew unimpeded. After 25 days, the tumors from mice treated with NO-Cbl were 67.4% smaller than the control tumors (p≦0.0002) and tumors from mice treated with Apo2L/TRAIL were 89.4% smaller than the control tumors (p≦0.00001). The tumors from mice treated with the combination of NO-Cbl and Apo2L/TRAIL were 95.7% smaller than the control tumors (p≦0.000005).

[8] = system: A375 cells; assay: TUNEL apoptosis assay; format: cell-based, human; conditions: single agent, 36 h; NO-Cbl 100 μM or Apo2L/TRAIL 100 ng/ml
Experimental: TUNEL assay. Please see FIG. 3. A375 cells were cultured for 36 h and exposed to various treatments (control, NO-Cbl, Apo2L/TRAIL and NO-Cbl+Apo2L/TRAIL. Apoptotic cells were detected by TUNEL (terminal deoxynucleotidyltransferase-mediated dUTP-biotin nick end-labeling) staining using a commercially available kit (APO-BRDU kit, BD-Pharmingen, San Diego, Calif.). Cells were processed according to the manufacturer's recommended protocol. The percentage of FITC-positive cells was analyzed by fluorescent activated cell scanning (FACS, Becton Dickinson, Facsvantage, San Diego, Calif.).
Cell line A375 has a defect in endogenous TRAIL gene induction therefore, additive cellular responses from exogenous TRAIL/Apo2L were avoided. TUNEL assays of A375 cells treated in vitro with NO-Cbl, Apo2L/TRAIL, or the combination were performed. FIG. 3 illustrates a TUNEL apoptosis assay in accordance with the present invention. A375 cells were treated with NO-Cbl, Apo-2L/TRAIL, and the combination. […] The highest levels of apoptosis were observed when cells were pre-treated with NO-Cbl followed by Apo2L/TRAIL treatment. Treatment for 36 h with NO-Cbl (100 μM) or Apo2L/TRAIL (100 ng/ml) induced 6.2% and 5.4% TUNEL-positive cells, respectively.

Molecule | NF-κB DNA binding activity induced by Apo2L/TRAIL [1] | IκBα phosphorylation induced by Apo2L/TRAIL [2] | NF-κB signaling [3] | antiproliferative effect on normal cells [4] | antiproliferative effect on normal cells [5] | antiproliferative effect on normal cells [6] | tumor regression ([7]; A375 xenografts, nude mice) | tumors smaller than the control tumors ([7]; after 25 days, NO-Cbl 50 mg/kg s.c. twice daily, Apo2L/TRAIL 50 mg/kg s.c. every other day, from day 2) | TUNEL-positive cells [8]
CC(=O)NC(C(=O)O)C(C)(C)SN=O (racemic) [SNAP, S-nitroso-N-acetyl-D,L-penicillamine, reference compound] | inhibited | inhibited | inhibit | – | – | – | – | – | –
B1 | – | – | – | completely resistant | completely resistant | completely resistant | Tumor regression was observed | 89.4% | 5.4%
